Where “and” joins values, the source holds several entries; their conditions need not be identical. Equal values may be shown once.

Assay [1] deals with truncated form of the monomeric type IV pilin from P. aeruginosa strain K122-4 [pilA (Δ1-28); ΔK122] (Pseudomonas aeruginosa strain K122-4). In words: SEC-MALS; MALS of the SEC-separated Peak 3/4 aliquot of 15 mg·mL^-1 ΔK122 after 24 hours incubation with MPD; signal overload at the detector noted. (In general: In gel filtration, larger molecules generally elute earlier.)
The target is the same in assay [2]. The assay is described as follows: SEC-MALS; silica-based column, 10 nm pore size, 10 mM Tris pH 7.4; 1 mg·mL^-1 ΔK122 incubated with MPD for 3 hours; relative peak areas.
Assay [3] has the same target. In words: SEC-MALS; silica-based column, 10 nm pore size, 10 mM Tris pH 7.4; 1 mg·mL^-1 ΔK122 incubated with MPD for 24 hours; Peaks 2-4.
Assay [4] has the same target. In words: SEC-MALS; silica-based column, 10 nm pore size, 10 mM Tris pH 7.4; 1 mg·mL^-1 ΔK122 before incubation with MPD; monomer to dimer.
Assay [5] shares this target. The assay is described as follows: SEC-MALS; silica-based column, 10 nm pore size, 10 mM Tris pH 7.4; 1 mg·mL^-1 ΔK122 incubated with MPD for 72 hours; relative peak areas.

With “truncated form of the monomeric type IV pilin from P. aeruginosa strain K122-4 [pilA (Δ1-28); ΔK122] (domain or fragment)”, the stoichiometry N in assay [1] is 4040; in assay [3], 14 and 20 and 40; in assay [4], 2. The substance further showed a percent of total species in the higher molecular weight peaks (3 hours with MPD) in assay [2] of 55.1%. The percent of total species in the higher molecular weight peaks (before MPD) in assay [4] was found to be 17.5%. Besides, the percent of total protein in the higher molecular weight peaks (72 hours with MPD) in assay [5] was determined as 90%.

One may read the stoichiometry N as the number of molecules, sites or subunits per partner or assembly.

The record behind these values is PMC3704941.
